The assay addresses recombinant human β-actin (wild type) (human) (UniProt P60709). Put plainly: ITC; VP-ITC, 25 °C, G-buffer (5 mM Tris-HCl pH 7.8, 0.1 mM CaCl2, 0.2 mM DTT, 0.2 mM ATP, 0.01% NaN3); 29 injections of 10 μl Tβ4 (100 μM) into actin (10 μM) in the cell. In general terms: In ITC the heat of successive injections is recorded.

The term Kd denotes the concentration at which binding is half-saturated. Regarding “thymosin β4 (from UniProt P62328 1-44) (peptide)”, the Kd was 500 nM.
